Here are results for 9 molecules from article PMC3384305 (Nucleic Acids Research, 2012).

The target of data set [1] is T1, NHTF (NHTF C-His) (UniProt Q7DDD9 1-106).
T1 sequence: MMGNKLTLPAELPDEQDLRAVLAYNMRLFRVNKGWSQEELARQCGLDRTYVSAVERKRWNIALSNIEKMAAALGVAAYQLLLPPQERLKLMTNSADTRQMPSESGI
In words: EMSA. In general terms: A gel shift assay detects complexes by their altered migration in electrophoresis.

Data set [2] deals with the molecule itself. In words: SEC.
Data set [3] deals with T1, NHTF (NHTF C-His). In words: EMSA. The source holds these as a separate data set.
Data set [4] concerns the molecule itself. Kind of data set: SEC. The source holds these as a separate data set. Background: In gel filtration, larger molecules generally elute earlier.

As a reminder, the stoichiometry N is the number of molecules, sites or subunits per partner or assembly.

Where two headings read alike, the source gives them in different places.

B1: NHTF 5'UTR fragment 2 (dsDNA)
DNA 1: TTGATGTGTGTGTGTTTGGGTGTGGCTGCCGCCACCC
DNA 2: GGGTGGCGGCAGCCACACCCAAACACACACACATCAA
As for B1, the binding result with NHTF (NHTF C-His) [1] was “no binding”.

B2: NHTF 5'UTR fragment 1 (dsDNA)
DNA 1: TGTTTCCCAATCTGTCTTGATTTTATCTCTTTCCTC
DNA 2: GAGGAAAGAGATAAAATCAAGACAGATTGGGAAACA
As to B2, in the data set with NHTF (NHTF C-His) [1], the binding result is given as “no binding”.

B3: DMP19 (NMB0541), without any tag (natural protein, N. meningitidis MC58, UniProt Q9K0P4 1-165, looked up)
chain: MTALTLPEDIRQQEPSALLYTLVSAYLEHTAQTGDESLSCLSDDQHTLTAFCYLDSQVEEGGFVQLIASGYGEYIFRNPLADSLRRWKIKAVPKVLDKAKALYEQHGKTIETLADGGADIPSLRKQFPEFEEWDGAYYEAAEQDLPLLAEHIQSNWETFAHIGQA
With B3, in “SEC [2]”, the “stoichiometry N” value is 2.

B4: Nonspecific 25-mer (dsDNA)
DNA 1: ACCCCTTTTTTTTGGCTTTTATGTG
DNA 2: CACATAAAAGCCAAAAAAAAGGGGT
As to B4, in the data set with NHTF (NHTF C-His) [3], the binding result is recorded as “no binding”.

B5: NHTF 5'UTR fragment 3 (dsDNA)
DNA 1: CTTTTTTTTGGCTTTTATGTGAAGTAAAATCCGTAACAGC
DNA 2: GCTGTTACGGATTTTACTTCACATAAAAGCCAAAAAAAAG
For B5, the binding result with NHTF (NHTF C-His) [1] is reported as “binds”.

B6: Specific (mutant) 25-mer (dsDNA)
DNA 1: TACCCGAAGTAAAATCCGTAACAGC
DNA 2: GCTGTTACGGATTTTACTTCGGGTA
For B6, the binding result with NHTF (NHTF C-His) [1] is listed as “no binding”.

B7: Specific 25-mer (dsDNA)
DNA 1: TATGTGAAGTAAAATCCGTAACAGC
DNA 2: GCTGTTACGGATTTTACTTCACATA
Consider B7, for which the binding result with NHTF (NHTF C-His) [1] is on record as “binds”.

B8: NHTF 5'UTR fragment 4 (dsDNA)
DNA 1: AAATGCTTAACTTTAACCATTTATCTGGAAGCAA
DNA 2: TTGCTTCCAGATAAATGGTTAAAGTTAAGCATTT
With B8, in the data set with NHTF (NHTF C-His) [1], the binding result is listed as “no binding”.

B9: C-terminal His6-tagged NHTF transcription factor (natural protein, N. meningitidis MC58)
chain: T1 sequence
In the case of B9, the “stoichiometry N” value in the data set “SEC [4]” stood at 2.
